From publication PMC9957003, “Functional Analyses of Rare Germline Missense BRCA1 Variants Located within and outside Protein Domains with Known Functions” (Genes, 2023) come the findings set out here.

Residue numbers refer to the chain shown, from its start.

T1: BARD1-V5 WT (BRCA1-Associated RING Domain protein 1) (UniProt Q99728 1-777)
T1 construct: BARD1 (BRCA1-Associated RING Domain protein 1), wild type; also called pcDNA6.2-BARD1-V5; source: HEK293FT, transiently co-transfected, in lysate
T1 sequence (looked up): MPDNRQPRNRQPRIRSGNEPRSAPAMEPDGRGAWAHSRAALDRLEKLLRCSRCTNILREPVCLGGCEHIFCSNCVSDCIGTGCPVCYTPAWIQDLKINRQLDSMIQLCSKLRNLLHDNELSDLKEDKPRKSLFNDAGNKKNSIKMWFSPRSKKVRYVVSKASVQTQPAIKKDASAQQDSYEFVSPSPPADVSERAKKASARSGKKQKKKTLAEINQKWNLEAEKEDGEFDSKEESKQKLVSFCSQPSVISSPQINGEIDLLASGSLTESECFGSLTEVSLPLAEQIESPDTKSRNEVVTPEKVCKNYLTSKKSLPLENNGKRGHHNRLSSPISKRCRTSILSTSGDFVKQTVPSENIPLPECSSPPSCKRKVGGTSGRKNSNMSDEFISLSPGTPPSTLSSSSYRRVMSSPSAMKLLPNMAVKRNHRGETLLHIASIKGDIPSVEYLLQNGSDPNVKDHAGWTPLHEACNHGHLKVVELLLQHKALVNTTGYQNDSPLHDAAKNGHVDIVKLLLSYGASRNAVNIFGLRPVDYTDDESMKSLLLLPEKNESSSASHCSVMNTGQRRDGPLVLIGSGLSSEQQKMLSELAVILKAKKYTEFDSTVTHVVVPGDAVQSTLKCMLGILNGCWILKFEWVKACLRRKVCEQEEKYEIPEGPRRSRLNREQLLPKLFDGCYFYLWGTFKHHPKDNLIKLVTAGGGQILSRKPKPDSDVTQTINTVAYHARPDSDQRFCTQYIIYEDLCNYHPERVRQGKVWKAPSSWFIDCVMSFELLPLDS

T2: Flag-PALB2 WT (Partner and Localiser of BRCA2) (UniProt Q86YC2 1-1186)
T2 construct: PALB2 (Partner and Localiser of BRCA2), wild type; printed both as Flag-PALB2 and as PALB2-Flag; also called PALB2-Flag; pDEST-FRT/T0-Flag-PALB2; source: HEK293FT, transiently co-transfected, in lysate
T2 sequence (looked up): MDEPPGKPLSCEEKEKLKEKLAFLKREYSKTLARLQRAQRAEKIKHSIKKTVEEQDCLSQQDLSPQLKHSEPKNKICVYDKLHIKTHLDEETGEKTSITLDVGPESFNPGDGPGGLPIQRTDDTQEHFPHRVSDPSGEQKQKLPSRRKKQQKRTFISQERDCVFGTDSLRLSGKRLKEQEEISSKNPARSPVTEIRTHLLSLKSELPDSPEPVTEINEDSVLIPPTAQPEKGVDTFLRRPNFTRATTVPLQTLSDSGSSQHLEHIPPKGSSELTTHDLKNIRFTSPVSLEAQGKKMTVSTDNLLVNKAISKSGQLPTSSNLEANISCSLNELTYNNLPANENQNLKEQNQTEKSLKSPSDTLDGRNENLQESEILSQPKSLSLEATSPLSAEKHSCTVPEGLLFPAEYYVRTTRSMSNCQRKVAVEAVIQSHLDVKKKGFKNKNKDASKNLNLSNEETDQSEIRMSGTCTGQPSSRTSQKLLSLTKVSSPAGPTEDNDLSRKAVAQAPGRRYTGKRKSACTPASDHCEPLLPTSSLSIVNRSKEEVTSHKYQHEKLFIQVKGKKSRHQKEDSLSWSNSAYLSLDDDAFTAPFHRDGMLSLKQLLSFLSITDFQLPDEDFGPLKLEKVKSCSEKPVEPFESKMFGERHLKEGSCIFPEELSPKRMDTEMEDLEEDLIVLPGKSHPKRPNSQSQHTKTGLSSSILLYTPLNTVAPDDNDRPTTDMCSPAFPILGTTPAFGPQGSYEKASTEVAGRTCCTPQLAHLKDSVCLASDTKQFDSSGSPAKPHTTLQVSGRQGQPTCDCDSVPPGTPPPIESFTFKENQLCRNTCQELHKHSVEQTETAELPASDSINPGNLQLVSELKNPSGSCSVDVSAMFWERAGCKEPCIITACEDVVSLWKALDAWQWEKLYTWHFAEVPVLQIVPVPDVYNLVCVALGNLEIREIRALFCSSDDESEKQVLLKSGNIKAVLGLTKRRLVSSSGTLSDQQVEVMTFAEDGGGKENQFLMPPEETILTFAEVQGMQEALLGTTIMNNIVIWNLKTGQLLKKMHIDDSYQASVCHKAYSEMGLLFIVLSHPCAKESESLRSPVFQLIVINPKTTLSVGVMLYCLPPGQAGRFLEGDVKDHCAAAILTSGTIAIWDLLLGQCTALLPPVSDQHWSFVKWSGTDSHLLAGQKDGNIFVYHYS

B1: mCherry-tagged wild type (WT) full-length human BRCA1 protein (natural protein, UniProt P38398 1-1863, looked up)
chain: MDLSALRVEEVQNVINAMQKILECPICLELIKEPVSTKCDHIFCKFCMLKLLNQKKGPSQCPLCKNDITKRSLQESTRFSQLVEELLKIICAFQLDTGLEYANSYNFAKKENNSPEHLKDEVSIIQSMGYRNRAKRLLQSEPENPSLQETSLSVQLSNLGTVRTLRTKQRIQPQKTSVYIELGSDSSEDTVNKATYCSVGDQELLQITPQGTRDEISLDSAKKAACEFSETDVTNTEHHQPSNNDLNTTEKRAAERHPEKYQGSSVSNLHVEPCGTNTHASSLQHENSSLLLTKDRMNVEKAEFCNKSKQPGLARSQHNRWAGSKETCNDRRTPSTEKKVDLNADPLCERKEWNKQKLPCSENPRDTEDVPWITLNSSIQKVNEWFSRSDELLGSDDSHDGESESNAKVADVLDVLNEVDEYSGSSEKIDLLASDPHEALICKSERVHSKSVESNIEDKIFGKTYRKKASLPNLSHVTENLIIGAFVTEPQIIQERPLTNKLKRKRRPTSGLHPEDFIKKADLAVQKTPEMINQGTNQTEQNGQVMNITNSGHENKTKGDSIQNEKNPNPIESLEKESAFKTKAEPISSSISNMELELNIHNSKAPKKNRLRRKSSTRHIHALELVVSRNLSPPNCTELQIDSCSSSEEIKKKKYNQMPVRHSRNLQLMEGKEPATGAKKSNKPNEQTSKRHDSDTFPELKLTNAPGSFTKCSNTSELKEFVNPSLPREEKEEKLETVKVSNNAEDPKDLMLSGERVLQTERSVESSSISLVPGTDYGTQESISLLEVSTLGKAKTEPNKCVSQCAAFENPKGLIHGCSKDNRNDTEGFKYPLGHEVNHSRETSIEMEESELDAQYLQNTFKVSKRQSFAPFSNPGNAEEECATFSAHSGSLKKQSPKVTFECEQKEENQGKNESNIKPVQTVNITAGFPVVGQKDKPVDNAKCSIKGGSRFCLSSQFRGNETGLITPNKHGLLQNPYRIPPLFPIKSFVKTKCKKNLLEENFEEHSMSPEREMGNENIPSTVSTISRNNIRENVFKEASSSNINEVGSSTNEVGSSINEIGSSDENIQAELGRNRGPKLNAMLRLGVLQPEVYKQSLPGSNCKHPEIKKQEYEEVVQTVNTDFSPYLISDNLEQPMGSSHASQVCSETPDDLLDDGEIKEDTSFAENDIKESSAVFSKSVQKGELSRSPSPFTHTHLAQGYRRGAKKLESSEENLSSEDEELPCFQHLLFGKVNNIPSQSTRHSTVATECLSKNTEENLLSLKNSLNDCSNQVILAKASQEHHLSEETKCSASLFSSQCSELEDLTANTNTQDPFLIGSSKQMRHQSESQGVGLSDKELVSDDEERGTGLEENNQEEQSMDSNLGEAASGCESETSVSEDCSGLSSQSDILTTQQRDTMQHNLIKLQQEMAELEAVLEQHGSQPSNSYPSIISDSSALEDLRNPEQSTSEKAVLTSQKSSEYPISQNPEGLSADKFEVSADSSTSKNKEPGVERSSPSKCPSLDDRWYMHSCSGSLQNRNYPSQEELIKVVDVEEQQLEESGPHDLTETSYLPRQDLEGTPYLESGISLFSDDPESDPSEDRAPESARVGNIPSSTSALKVPQLKVAESAQSPAAAHTTDTAGYNAMEESVSREKPELTASTERVNKRMSMVVSGLTPEEFMLVYKFARKHHITLTNLITEETTHVVMKTDAEFVCERTLKYFLGIAGGKWVVSYFWVTQSIKERKMLNEHDFEVRGDVVNGRNHQGPKRARESQDRKIFRGLEICCYGPFTNMPTDQLEWMVQLCGASVVKELSSFTLGTGVHPIVVVQPDAWTEDNGFHAIGQMCEAPVVTREWVLDSVALYQCQELDTYLIPQIPHSHY
notes: BRCA1, human, full-length, wild type; also called BRCA1 WT; mCherry-BRCA1; source: HEK293FT, transiently co-transfected, in lysate
B2: BRCA1 p.Gly890Arg (full-length, mCherry-tagged) (natural protein, human, UniProt P38398 1-1863, looked up)
chain: B1 chain with G890R
notes: BRCA1, human, full-length, rare germline missense variant introduced in the WT plasmid; Made by site-directed mutagenesis of the plasmid of m1; also called c.2668G > A; source: HEK293FT, transiently co-transfected, in lysate
B3: BRCA1 p.Glu575Lys (full-length, mCherry-tagged) (natural protein, human, UniProt P38398 1-1863, looked up)
chain: B1 chain with E575K
notes: BRCA1, human, full-length, rare germline missense variant introduced in the WT plasmid; Made by site-directed mutagenesis of the plasmid of m1; also called c.1723G > A; source: HEK293FT, transiently co-transfected, in lysate
B4: BRCA1 p.Leu523Val (full-length, mCherry-tagged) (natural protein, human, UniProt P38398 1-1863, looked up)
chain: B1 chain with L523V
notes: BRCA1, human, full-length, rare germline missense variant introduced in the WT plasmid; Made by site-directed mutagenesis of the plasmid of m1; also called c.1567T > G; source: HEK293FT, transiently co-transfected, in lysate
B5: BRCA1 p.Gly933Asp (full-length, mCherry-tagged) (natural protein, human, UniProt P38398 1-1863, looked up)
chain: B1 chain with G933D
notes: BRCA1, human, full-length, rare germline missense variant introduced in the WT plasmid; Made by site-directed mutagenesis of the plasmid of m1; also called c.2798G > A; source: HEK293FT, transiently co-transfected, in lysate
B6: BRCA1 p.Leu1439Phe (full-length, mCherry-tagged) (natural protein, human, UniProt P38398 1-1863, looked up)
chain: B1 chain with L1439F
notes: BRCA1, human, full-length, rare germline missense variant introduced in the WT plasmid; Made by site-directed mutagenesis of the plasmid of m1; also called c.4315C > T; source: HEK293FT, transiently co-transfected, in lysate
B7: BRCA1 p.Ile925Val (full-length, mCherry-tagged) (natural protein, human, UniProt P38398 1-1863, looked up)
chain: B1 chain with I925V
notes: BRCA1, human, full-length, rare germline missense variant introduced in the WT plasmid; Made by site-directed mutagenesis of the plasmid of m1; also called c.2773A > G; source: HEK293FT, transiently co-transfected, in lysate
B8: BRCA1 p.Arg504Cys (full-length, mCherry-tagged) (natural protein, human, UniProt P38398 1-1863, looked up)
chain: B1 chain with R504C
notes: BRCA1, human, full-length, rare germline missense variant introduced in the WT plasmid; Made by site-directed mutagenesis of the plasmid of m1; also called c.1510C > T; source: HEK293FT, transiently co-transfected, in lysate

In the first experiment the target is T1, BARD1-V5 WT (BRCA1-Associated RING …). The experiment can be described thus: co-IP; HEK293FT co-transfected with BRCA1 WT or variant and BARD1-V5; 2 mg lysate protein incubated 90 min at 4 °C with V5 antibody coupled to Dynabeads Protein G; non-denaturing elution; BRCA1 in the IP detected by anti-BRCA1 blot, normalised to the anti-V5 signal, % of WT. As to conditions: partners not purified.
On to B1, for which the “Co-IP BARD1 (% of WT)” value is 100 % of WT.

As for B2, the “Co-IP BARD1 (% of WT)” value was 77 % of WT.

Regarding B3, the “Co-IP BARD1 (% of WT)” value is 77 % of WT.

On to B4, for which the “Co-IP BARD1 (% of WT)” value is 71 % of WT.

In the case of B5, the “Co-IP BARD1 (% of WT)” value was 73 % of WT.

In the case of B6, the “Co-IP BARD1 (% of WT)” value was 60 % of WT.

On to B7, for which the “Co-IP BARD1 (% of WT)” value is 97 % of WT.

As for B8, the “Co-IP BARD1 (% of WT)” value is 63 % of WT.

The next experiment addresses T2, Flag-PALB2 WT (Partner and Localiser of …). The experiment can be described thus: co-IP; HEK293FT co-transfected with BRCA1 WT or variant and Flag-PALB2; 2 mg lysate protein incubated 90 min at 4 °C with Flag antibody coupled to Dynabeads Protein G; non-denaturing elution; BRCA1 in the IP detected by anti-BRCA1 blot, normalised to the anti-Flag signal, % of WT. As to conditions: partners not purified.
Regarding B2, the “Co-IP PALB2 (% of WT)” value was 89 % of WT.

On to B3, for which the “Co-IP PALB2 (% of WT)” value was 66 % of WT.

Take B4: the “Co-IP PALB2 (% of WT)” value is 73 % of WT.

As to B5, the “Co-IP PALB2 (% of WT)” value is 115 % of WT.

Regarding B6, the “Co-IP PALB2 (% of WT)” value was 86 % of WT.

Take B7: the “Co-IP PALB2 (% of WT)” value was 88 % of WT.

With B8, the “Co-IP PALB2 (% of WT)” value is 65 % of WT.
